From paper doi:10.1101/2024.02.21.581378 (bioRxiv, 2024) come the findings set out here.

Test [1] concerns the target macaque TMPRSS2 N469Y on transfected 293T cells (macaque).
The target in test [2] is cleaved soluble TMPRSS2^S441A (TMPRSS2^S441A-Cl) (human, UniProt O15393 107-255; O15393 256-492, S441A). The test can be described thus: BLI. A general note: In BLI a coated tip is dipped into the sample, and binding shifts an interference pattern.
In test [3] the target is T1, TMPRSS2^S441A (human TMPRSS2 residues 107-492, zymogen, uncleaved) (human, UniProt O15393 107-492, S441A). The test can be described thus: BLI.
For test [4], the target named is T1, TMPRSS2^S441A (human TMPRSS2 residues …). The test can be described thus: crystal structure.

In general, Kd refers to the equilibrium constant for the complex coming apart. Low readings indicate higher affinity, high ones lower affinity.

T1 sequence (O15393 107-492 S441A): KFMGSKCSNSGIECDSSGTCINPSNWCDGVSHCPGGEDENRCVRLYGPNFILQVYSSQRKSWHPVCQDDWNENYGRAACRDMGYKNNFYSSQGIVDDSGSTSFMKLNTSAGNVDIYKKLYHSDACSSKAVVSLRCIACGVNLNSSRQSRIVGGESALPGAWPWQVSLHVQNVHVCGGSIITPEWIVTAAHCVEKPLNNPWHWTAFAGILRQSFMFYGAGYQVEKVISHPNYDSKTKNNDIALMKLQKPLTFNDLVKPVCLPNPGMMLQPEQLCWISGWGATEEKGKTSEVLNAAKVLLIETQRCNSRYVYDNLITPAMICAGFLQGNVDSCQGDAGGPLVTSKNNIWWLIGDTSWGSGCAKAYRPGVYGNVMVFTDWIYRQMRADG
cleaved soluble TMPRSS2^S441A (TMPRSS2^S441A-Cl), sequence (O15393 107-255, chain 1 of 2): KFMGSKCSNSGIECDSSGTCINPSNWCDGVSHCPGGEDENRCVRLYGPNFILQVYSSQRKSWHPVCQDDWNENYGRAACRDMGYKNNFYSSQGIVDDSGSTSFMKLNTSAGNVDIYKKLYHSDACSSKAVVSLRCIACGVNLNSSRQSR
cleaved soluble TMPRSS2^S441A (TMPRSS2^S441A-Cl), sequence (O15393 256-492 S441A, chain 2 of 2): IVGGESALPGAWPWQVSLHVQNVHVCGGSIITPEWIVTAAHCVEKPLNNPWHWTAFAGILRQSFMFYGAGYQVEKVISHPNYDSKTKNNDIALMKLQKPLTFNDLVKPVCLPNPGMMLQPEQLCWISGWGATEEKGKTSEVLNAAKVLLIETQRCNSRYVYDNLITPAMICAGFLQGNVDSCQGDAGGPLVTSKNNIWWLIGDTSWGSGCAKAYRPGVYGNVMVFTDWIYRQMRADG

Consider “soluble biotinylated HKU1B spike (from UniProt Q0ZME7) (natural protein)”, for which the entry of HKU1B pseudoviruses, fold increase against wild-type macaque TMPRSS2 in test [1] worked out at 10 fold.

B1: HKU1B RBD (residues 330-614 of the spike protein), wild type (domain or fragment)
chain: DNWLNNVSVPSPLNWERRIFSNCNFNLSTLLRLVHVDSFSCNNLDKSKIFGSCFNSITVDKFAIPNRRRDDLQLGSSGFLQSSNYKIDISSSSCQLYYSLPLVNVTINNFNPSSWNRRYGFGSFNLSSYDVVYSDHCFSVNSDFCPCADPSVVNSCAKSKPPSAICPAGTKYRHCDLDTTLYVKNWCRCSCLPDPISTYSPNTCPQKKVVVGIGEHCPGLGINEEKCGTQLNHSSCFCSPDAFLGWSFDSCISNNRCNIFSNFIFNGINSGTTCSNDLLYSNTEI
Take B1: the dissociation constant Kd in test [2] was 30 nM.

B2: HKU1B RBD (residues 330-614) K487A (domain or fragment)
chain: DNWLNNVSVPSPLNWERRIFSNCNFNLSTLLRLVHVDSFSCNNLDKSKIFGSCFNSITVDKFAIPNRRRDDLQLGSSGFLQSSNYKIDISSSSCQLYYSLPLVNVTINNFNPSSWNRRYGFGSFNLSSYDVVYSDHCFSVNSDFCPCADPSVVNSCAASKPPSAICPAGTKYRHCDLDTTLYVKNWCRCSCLPDPISTYSPNTCPQKKVVVGIGEHCPGLGINEEKCGTQLNHSSCFCSPDAFLGWSFDSCISNNRCNIFSNFIFNGINSGTTCSNDLLYSNTEI
On to B2, for which the binding result in test [2] and in test [3] was “binds” in each case.

B3: HKU1B RBD (residues 330-614) Y528A (domain or fragment)
chain: DNWLNNVSVPSPLNWERRIFSNCNFNLSTLLRLVHVDSFSCNNLDKSKIFGSCFNSITVDKFAIPNRRRDDLQLGSSGFLQSSNYKIDISSSSCQLYYSLPLVNVTINNFNPSSWNRRYGFGSFNLSSYDVVYSDHCFSVNSDFCPCADPSVVNSCAKSKPPSAICPAGTKYRHCDLDTTLYVKNWCRCSCLPDPISTASPNTCPQKKVVVGIGEHCPGLGINEEKCGTQLNHSSCFCSPDAFLGWSFDSCISNNRCNIFSNFIFNGINSGTTCSNDLLYSNTEI
Turning to B3, the binding result in test [2] and in test [3] was “binds” each time.

B4: HKU1B RBD (residues 330-614) L510R (domain or fragment)
chain: DNWLNNVSVPSPLNWERRIFSNCNFNLSTLLRLVHVDSFSCNNLDKSKIFGSCFNSITVDKFAIPNRRRDDLQLGSSGFLQSSNYKIDISSSSCQLYYSLPLVNVTINNFNPSSWNRRYGFGSFNLSSYDVVYSDHCFSVNSDFCPCADPSVVNSCAKSKPPSAICPAGTKYRHCDLDTTRYVKNWCRCSCLPDPISTYSPNTCPQKKVVVGIGEHCPGLGINEEKCGTQLNHSSCFCSPDAFLGWSFDSCISNNRCNIFSNFIFNGINSGTTCSNDLLYSNTEI
Consider B4, for which the binding result in test [2] and in test [3] was “binds” throughout.

B5: HKU1B RBD (residues 330-614) S529A (domain or fragment)
chain: DNWLNNVSVPSPLNWERRIFSNCNFNLSTLLRLVHVDSFSCNNLDKSKIFGSCFNSITVDKFAIPNRRRDDLQLGSSGFLQSSNYKIDISSSSCQLYYSLPLVNVTINNFNPSSWNRRYGFGSFNLSSYDVVYSDHCFSVNSDFCPCADPSVVNSCAKSKPPSAICPAGTKYRHCDLDTTLYVKNWCRCSCLPDPISTYAPNTCPQKKVVVGIGEHCPGLGINEEKCGTQLNHSSCFCSPDAFLGWSFDSCISNNRCNIFSNFIFNGINSGTTCSNDLLYSNTEI
Consider B5, for which the binding result in test [2] is recorded as “binds”.

B6: HKU1B RBD and subdomain-1 (RBD-SD1, residues 307-675 of the spike protein) (domain or fragment)
chain: SGFTVKPVATVYRRIPNLPDCDIDNWLNNVSVPSPLNWERRIFSNCNFNLSTLLRLVHVDSFSCNNLDKSKIFGSCFNSITVDKFAIPNRRRDDLQLGSSGFLQSSNYKIDISSSSCQLYYSLPLVNVTINNFNPSSWNRRYGFGSFNLSSYDVVYSDHCFSVNSDFCPCADPSVVNSCAKSKPPSAICPAGTKYRHCDLDTTLYVKNWCRCSCLPDPISTYSPNTCPQKKVVVGIGEHCPGLGINEEKCGTQLNHSSCFCSPDAFLGWSFDSCISNNRCNIFSNFIFNGINSGTTCSNDLLYSNTEISTGVCVNYDLYGITGQGIFKEVSAAYYNNWQNLLYDSNGNIIGFKDFLTNKTYTILPCYSG
Turning to B6, in test [4], the binding result is on record as “binds”.
